Reference: patent US20100184047A1, “SCREENING AND THERAPEUTIC METHOD FOR NSCLC TARGETING THE CDCA8-AURKB COMPLEX” (ONCOTHERAPY SCIENCE, INC., priority 2007, published 2010)
Residues, ends and D or L forms follow the SMILES beside them.

T1: 11R-CDCA8261-280
T1 chain: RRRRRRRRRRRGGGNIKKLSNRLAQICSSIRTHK

T2: CDCA8delta11
T2 chain: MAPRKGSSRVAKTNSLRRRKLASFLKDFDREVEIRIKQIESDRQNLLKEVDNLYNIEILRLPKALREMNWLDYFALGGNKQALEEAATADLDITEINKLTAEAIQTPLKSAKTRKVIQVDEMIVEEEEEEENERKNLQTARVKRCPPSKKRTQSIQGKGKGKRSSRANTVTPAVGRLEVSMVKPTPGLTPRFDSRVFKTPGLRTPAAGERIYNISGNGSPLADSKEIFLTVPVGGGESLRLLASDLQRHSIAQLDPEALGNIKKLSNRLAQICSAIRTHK

T3: CDCA8delta12
T3 chain: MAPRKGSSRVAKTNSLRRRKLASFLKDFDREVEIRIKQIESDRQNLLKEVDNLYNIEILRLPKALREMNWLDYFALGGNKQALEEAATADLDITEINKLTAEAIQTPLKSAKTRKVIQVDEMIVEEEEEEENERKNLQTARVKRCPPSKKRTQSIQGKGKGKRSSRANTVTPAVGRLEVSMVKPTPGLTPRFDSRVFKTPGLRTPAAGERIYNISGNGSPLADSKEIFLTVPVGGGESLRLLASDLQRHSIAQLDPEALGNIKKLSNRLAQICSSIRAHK

T4: CDCA8delta13
T4 chain: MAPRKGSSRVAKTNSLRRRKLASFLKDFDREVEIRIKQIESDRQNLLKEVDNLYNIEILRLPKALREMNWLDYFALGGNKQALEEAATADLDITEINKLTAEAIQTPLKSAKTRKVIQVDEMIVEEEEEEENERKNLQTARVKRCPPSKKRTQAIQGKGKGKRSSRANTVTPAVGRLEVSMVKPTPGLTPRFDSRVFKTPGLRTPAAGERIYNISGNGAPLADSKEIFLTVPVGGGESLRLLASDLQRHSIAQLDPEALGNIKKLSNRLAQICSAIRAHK

T5: CDCA8delta8
T5 chain: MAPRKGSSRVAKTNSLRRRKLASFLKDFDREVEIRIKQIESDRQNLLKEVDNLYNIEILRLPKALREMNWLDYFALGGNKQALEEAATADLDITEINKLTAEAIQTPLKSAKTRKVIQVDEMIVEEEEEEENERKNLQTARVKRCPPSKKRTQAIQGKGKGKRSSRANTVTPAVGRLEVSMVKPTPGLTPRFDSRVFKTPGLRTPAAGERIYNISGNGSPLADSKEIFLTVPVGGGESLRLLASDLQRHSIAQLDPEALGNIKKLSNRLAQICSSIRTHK

T6: CDCA8delta9
T6 chain: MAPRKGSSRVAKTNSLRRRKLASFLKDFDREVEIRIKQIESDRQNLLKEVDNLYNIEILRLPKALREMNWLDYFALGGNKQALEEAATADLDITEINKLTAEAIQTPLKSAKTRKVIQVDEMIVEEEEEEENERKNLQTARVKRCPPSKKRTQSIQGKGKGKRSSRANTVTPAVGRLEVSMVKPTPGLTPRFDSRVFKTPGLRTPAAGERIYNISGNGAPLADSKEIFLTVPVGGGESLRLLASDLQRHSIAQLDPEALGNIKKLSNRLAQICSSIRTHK

T7: full-length recombinant CDCA8 protein (wild-type, N-terminal His tag)
T7 chain: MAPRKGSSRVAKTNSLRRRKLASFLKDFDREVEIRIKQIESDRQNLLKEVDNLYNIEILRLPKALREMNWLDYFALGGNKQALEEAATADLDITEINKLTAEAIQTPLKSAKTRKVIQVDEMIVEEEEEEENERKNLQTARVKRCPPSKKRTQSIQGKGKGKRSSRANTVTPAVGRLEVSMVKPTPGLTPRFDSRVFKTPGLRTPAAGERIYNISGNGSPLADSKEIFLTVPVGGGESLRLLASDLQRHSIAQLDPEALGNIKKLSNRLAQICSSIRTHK


What was measured:
MRC5 cells = test: MTT assay with 11R-peptides on normal lung fibroblasts; type: cell-based; conditions: MRC5, normal human lung fibroblast derived; CDCA8 and AURKB hardly detectable
CCD19-Lu cells = test: Cell viability with 11R-peptides on normal lung fibroblasts; type: cell-based; conditions: normal human lung fibroblast derived, CDCA8 and AURKB hardly detectable
BEAS-2B cells = test: MTT assay with 11R-peptides on bronchial epithelia derived cells; type: cell-based; conditions: human bronchial epithelia derived, CDCA8 and AURKB hardly detectable
Procedure: LC319, SBC-5 cells and BEAS-2B cells were incubated with the 11R-peptides at the concentration of 2.5 micromoles, 5 micromoles, and 7.5 micromoles for seven days. The medium was exchanged at every 48 hours at the appropriate concentrations of each peptide and the viability of cells was evaluated by MTT assay at 7 days after the treatment. To confirm the transduction efficiency of the peptides, the 11R-CDCA8261-280 and its control peptides labeled with fluorescein isothiocyanate (FITC) at N-terminus were synthesized. Transduction of the peptides (2.5-7.5 micromoles) was monitored by fluorescence microscopic observation after a 3-hour incubation of the peptides with the cell lines at 37 degrees C.

11R-CDCA8261-280 = molecular target: T1, 11R-CDCA8261-280
CDCA8delta11 = molecular target: T2, CDCA8delta11
CDCA8delta12 = molecular target: T3, CDCA8delta12
CDCA8delta13 = molecular target: T4, CDCA8delta13
CDCA8delta8 = molecular target: T5, CDCA8delta8
CDCA8delta9 = molecular target: T6, CDCA8delta9
[1] = molecular target: T7, full-length recombinant CDCA8 protein …

Row | Molecule | cell viability of normal cells (MRC5 cells) | cell viability of normal cells (CCD19-Lu cells) | cell viability of normal cells (BEAS-2B cells) | phosphorylation level of rhCDCA8 by rhAURKB in in vitro kinase assay (11R-CDCA8261-280) | phosphorylation level in in vitro kinase assay (CDCA8delta1) | phosphorylation level in in vitro kinase assay (CDCA8delta10) | phosphorylation level in in vitro kinase assay (CDCA8delta11) | phosphorylation level in in vitro kinase assay (CDCA8delta12) | phosphorylation level in in vitro kinase assay (CDCA8delta13) | phosphorylation level in in vitro kinase assay (CDCA8delta2) | phosphorylation level in in vitro kinase assay (CDCA8delta3) | phosphorylation level in in vitro kinase assay (CDCA8delta4) | phosphorylation level in in vitro kinase assay (CDCA8delta5) | phosphorylation level in in vitro kinase assay (CDCA8delta6) | phosphorylation level in in vitro kinase assay (CDCA8delta7) | phosphorylation level in in vitro kinase assay (CDCA8delta8) | phosphorylation level in in vitro kinase assay (CDCA8delta9) | in vitro phosphorylation ([gamma-32P] ATP kinase assay) [1]
1 | CC[C@H](C)[C@H](NC(=O)[C@H](CC(N)=O)NC(=O)CNC(=O)CNC(=O)CNC(=O)[C@H](CCCNC(=N)N)NC(=O)[C@H](CCCNC(=N)N)NC(=O)[C@H](CCCNC(=N)N)NC(=O)[C@H](CCCNC(=N)N)NC(=O)[C@H](CCCNC(=N)N)NC(=O)[C@H](CCCNC(=N)N)NC(=O)[C@H](CCCNC(=N)N)NC(=O)[C@H](CCCNC(=N)N)NC(=O)[C@H](CCCNC(=N)N)NC(=O)[C@H](CCCNC(=N)N)NC(=O)[C@@H](N)CCCNC(=N)N)C(=O)N[C@@H](CCCCN)C(=O)N[C@@H](CCCCN)C(=O)N[C@@H](CC(C)C)C(=O)N[C@@H](CO)C(=O)N[C@@H](CC(N)=O)C(=O)N[C@@H](CCCNC(=N)N)C(=O)N[C@@H](CC(C)C)C(=O)N[C@@H](C)C(=O)N[C@@H](CCC(N)=O)C(=O)N[C@H](C(=O)N[C@@H](CS)C(=O)N[C@@H](CO)C(=O)N[C@@H](CO)C(=O)N[C@H](C(=O)N[C@@H](CCCNC(=N)N)C(=O)N[C@H](C(=O)N[C@@H](Cc1c[nH]cn1)C(=O)N[C@@H](CCCCN)C(=O)O)[C@@H](C)O)[C@@H](C)CC)[C@@H](C)CC [11R-CDCA8261-280] (H-RRRRRRRRRRRGGGNIKKLSNRLAQICSSIRTHK-OH) | no off-target effect | no effect | no significant growth suppressive effect |  |  |  |  |  |  |  |  |  |  |  |  |  |  | 
2 | recombinant AURKB (Catalog No. 14-489; upstate) (protein) MAQKENSYPWPYGRQTAPSGLSTLPQRVLRKEPVTPSALVLMSRSNVQPTAAPGQKVMENSSGTPDILTRHFTIDDFEIGRPLGKGKFGNVYLAREKKSHFIVALKVLFKSQIEKEGVEHQLRREIEIQAHLHHPNILRLYNYFYDRRRIYLILEYAPRGELYKELQKSCTFDEQRTATIMEELADALMYCHGKKVIHRDIKPENLLLGLKGELKIADFGWSVHAPSLRRKTMCGTLDYLPPEMIEGRMHNEKVDLWCIGVLCYELLVGNPPFESASHNETYRRIVKVDLKFPASVPMGAQDLISKLLRHNPSERLPLAQVSAHPWVRANSRRVLPPSALQSVA |  |  |  | the phosphorylation level of rhCDCA8 was significantly suppressed by the treatment with 11R-CDCA8261-280 peptides ... compared to its scramble peptides | represented the same levels of phosphorylation compared to wild-type CDCA8 | showed the same levels of phosphorylation compared with wild-type | revealed the reduction of phosphorylation levels in four mutated-constructs | revealed the reduction of phosphorylation levels in four mutated-constructs | complete disappearance of CDCA8 phosphorylation by AURKB | a reduction of phosphorylation levels was detected in three mutated constructs (CDCA8delta2, -delta5, and -delta6), as compared to a wild-type | represented the same levels of phosphorylation compared to wild-type CDCA8 | represented the same levels of phosphorylation compared to wild-type CDCA8 | a reduction of phosphorylation levels was detected in three mutated constructs (CDCA8delta2, -delta5, and -delta6), as compared to a wild-type | a reduction of phosphorylation levels was detected in three mutated constructs (CDCA8delta2, -delta5, and -delta6), as compared to a wild-type | showed the same levels of phosphorylation compared with wild-type | revealed the reduction of phosphorylation levels in four mutated-constructs | revealed the reduction of phosphorylation levels in four mutated-constructs | CDCA8 was phosphorylated in an AURKB-dose-dependent manner
